Test results: patent US20240410900A1

Key:
[1] = target: non-targeted IgG-IL2 (interleukin-2 fused to the C-terminus of a heavy chain of a germline antibody, which is not binding to a target); assay: bridging ELISA, IgG-IL2-Bi and -Dig, binder 1.0 ng/mL assay / 20 ng/mL matrix
[2] = target: non-targeted IgG-IL2 (interleukin-2 fused to the C-terminus of a heavy chain of a germline antibody, which is not binding to a target); assay: bridging ELISA, IgG-IL2-Bi and -Dig, binder 3.9 ng/mL assay / 78 ng/mL matrix
[3] = target: non-targeted IgG-IL2 (interleukin-2 fused to the C-terminus of a heavy chain of a germline antibody, which is not binding to a target); assay: bridging ELISA, IgG-IL2-Bi and -Dig, binder 0.03 ng/mL assay / 0.6 ng/mL matrix
[4] = target: non-targeted IgG-IL2 (interleukin-2 fused to the C-terminus of a heavy chain of a germline antibody, which is not binding to a target); assay: bridging ELISA, IgG-IL2-Bi and -Dig, binder 0.06 ng/mL assay / 1.2 ng/mL matrix
[5] = target: non-targeted IgG-IL2 (interleukin-2 fused to the C-terminus of a heavy chain of a germline antibody, which is not binding to a target); assay: bridging ELISA, IgG-IL2-Bi and -Dig, binder 125 ng/mL assay / 2500 ng/mL matrix
[6] = target: TCB (T-cell bispecific format) drug antibody; assay: bridging ELISA, drug-Bi and drug-Dig, human pooled serum, binder 1.0 ng/mL assay / 20 ng/mL matrix
[7] = target: non-targeted IgG-IL2 (interleukin-2 fused to the C-terminus of a heavy chain of a germline antibody, which is not binding to a target); assay: as above
[8] = target: targeted IgG-IL2 (interleukin-2 fused to the C-terminus of a heavy chain of an antibody specifically binding to a therapeutic target); assay: as above
[9] = target: TCB (T-cell bispecific format) drug antibody; assay: bridging ELISA, drug-Bi and drug-Dig, human pooled serum, binder 0.49 ng/mL assay / 10 ng/mL matrix
[10] = target: non-targeted IgG-IL2 (interleukin-2 fused to the C-terminus of a heavy chain of a germline antibody, which is not binding to a target); assay: as above
[11] = target: targeted IgG-IL2 (interleukin-2 fused to the C-terminus of a heavy chain of an antibody specifically binding to a therapeutic target); assay: as above
[12] = target: non-targeted IgG-IL2 (interleukin-2 fused to the C-terminus of a heavy chain of a germline antibody, which is not binding to a target); assay: bridging ELISA, drug-Bi and drug-Dig, human pooled serum, binder 63 ng/mL assay / 1250 ng/mL matrix
[13] = target: TCB (T-cell bispecific format) drug antibody; assay: bridging ELISA, drug-Bi and drug-Dig, human pooled serum, binder 500 ng/mL assay / 10000 ng/mL matrix
[14] = target: non-targeted IgG-IL2 (interleukin-2 fused to the C-terminus of a heavy chain of a germline antibody, which is not binding to a target); assay: as above
[15] = target: targeted IgG-IL2 (interleukin-2 fused to the C-terminus of a heavy chain of an antibody specifically binding to a therapeutic target); assay: as above

B1: multivalent anti-PG antibody derived from clone 1.7.24 (mixed Pool 2, 3, 4) (antibody, V domains shown)
VH: EVKLLESGGGLVQPGGSLKLSCAASGFDFSRYWMNWVRQAPGKGLEWIGEITPDSSTINYTPSLKDKFIISRDNAKNTLYLQMIKVRSEDTALYYCVRPYDYGAWFASWGQGTLVTVSA
VL: QAVVTQESALTTSPGETVTLTCRSSTGAVTTSNYANWVQEKPDHLFTGLIGGTNKRAPGVPARFSGSLIGDKAALTITGAQTEDEAIYFCALWYSNHWVFGGGTKLTVL
modifications: lysine amines derivatised with SATP or MHS and cross-linked (sites not given)
signal [AU] [1]: 0.114 AU
signal [AU] [2]: 0.286 AU
signal [AU] [3]: 0.0525 AU
signal [AU] [4]: 0.056 AU
signal [AU] [5]: 3.08 AU
signal [AU] [6]: 0.12 AU
signal [AU] [7]: 0.0485 AU
signal [AU] [8]: 0.0975 AU
signal [AU] [9]: 0.0835 AU
signal [AU] [10]: 0.045 AU
signal [AU] [11]: 0.0675 AU
signal [AU] [12]: 0.77 AU
signal [AU] [13]: 2.99 AU
signal [AU] [14]: 2.81 AU
signal [AU] [15]: 3.01 AU
